This is an account of results in PMC12142670.

What is called Kd is the constant that tells how readily two partners part at equilibrium.

Where two headings read alike, the source gives them in different places.

Assay [1] has as its target IgG4 heavy chain CH3 (Homo sapiens) [IgG part: P01861]. The note with it: cited from earlier work.
Assay [2] deals with hinge-deleted human IgG4 anti-epidermal growth factor receptor (EGFR) antibody (IgG4Δhinge), R409K variant (human). Put plainly: native MS; variable-temperature ESI native MS (vT-ESI-MS); 2.5 uM antibody in 150 mM ammonium acetate pH 7.5; continuous ramp from 30 to 100 °C at 2 °C/min; full noncovalent antibody to two half antibodies.
The target of assay [3] is hinge-deleted human IgG4 anti-epidermal growth factor receptor (EGFR) antibody (IgG4Δhinge), L368A variant (human). The description is as above.
Assay [4] shares this target. Described as above. This is another data set of the same source.

Sequence of IgG4 heavy chain CH3 (P01861 218-328): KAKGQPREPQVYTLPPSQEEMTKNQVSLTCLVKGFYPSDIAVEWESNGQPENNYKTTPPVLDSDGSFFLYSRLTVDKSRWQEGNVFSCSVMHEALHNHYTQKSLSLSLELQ

For the substance “IgG4 heavy chain CH3 (from UniProt P01861)”, the Kd in assay [1] is 49.7 nM.
Turning to “hinge-deleted human IgG4 anti-epidermal growth factor receptor (EGFR) antibody (IgG4Δhinge), R409K variant”, in assay [2], the T1/2 (dissociation temperature of the full antibody into half antibodies) came to 77 °C.
With “hinge-deleted human IgG4 anti-epidermal growth factor receptor (EGFR) antibody (IgG4Δhinge), L368A variant”, the T1/2 (dissociation temperature of the full antibody into half antibodies) in assay [3] came to 53 °C; in assay [4], 52 °C.
